Assay results from patent US20140213513A1 (Sanofi, priority 2012, published 2014).
*1 amine or outer side, *2 acyl side, *3 side chain or, on linkers, in order; H or OH if unused. Where no end group is shown, it is not given here. Side-chain parts run from the residue outwards. [ ]: non-standard residue; d: D form. The star is where a group is joined. γGlu = O=C(O)[C@H](CCC(=O)[*:2])N[*:1]; Stearoyl = CCCCCCCCCCCCCCCCCC(=O)*; Palmitoyl = CCCCCCCCCCCCCCCC(=O)*; Aib = CC(C)(N)C(=O)O

T1: human GIP receptor (human, UniProt P48546 22-466)
T1 sequence (looked up): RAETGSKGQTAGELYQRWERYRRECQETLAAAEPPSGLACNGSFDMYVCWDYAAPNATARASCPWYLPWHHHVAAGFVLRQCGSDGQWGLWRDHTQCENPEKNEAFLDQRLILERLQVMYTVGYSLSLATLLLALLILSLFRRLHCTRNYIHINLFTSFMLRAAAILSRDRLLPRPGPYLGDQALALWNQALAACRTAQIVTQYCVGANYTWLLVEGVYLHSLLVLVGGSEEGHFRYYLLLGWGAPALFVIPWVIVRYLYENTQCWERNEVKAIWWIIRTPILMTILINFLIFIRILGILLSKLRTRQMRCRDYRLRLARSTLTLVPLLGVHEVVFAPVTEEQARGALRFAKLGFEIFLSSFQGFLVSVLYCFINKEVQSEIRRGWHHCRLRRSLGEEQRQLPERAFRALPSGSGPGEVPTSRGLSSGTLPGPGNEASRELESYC

B1: exendin-4 peptide analogue SEQ ID NO: 13 (peptide)
peptide: Y[Aib]QGTFTSDLSIQK([γGlu-Palmitoyl])EKRYA[Aib]EFIEWLKNTGPSSGAPPPS-NH2
modifications: N-terminus assumed
SMILES: CCCCCCCCCCCCCCCC(=O)N[C@@H](CCC(=O)NCCCC[C@H](NC(=O)[C@H](CCC(N)=O)NC(=O)[C@@H](NC(=O)[C@H](CO)NC(=O)[C@H](CC(C)C)NC(=O)[C@H](CC(=O)O)NC(=O)[C@H](CO)NC(=O)[C@@H](NC(=O)[C@H](Cc1ccccc1)NC(=O)[C@@H](NC(=O)CNC(=O)[C@H](CCC(N)=O)NC(=O)C(C)(C)NC(=O)[C@@H](N)Cc1ccc(O)cc1)[C@@H](C)O)[C@@H](C)O)[C@@H](C)CC)C(=O)N[C@@H](CCC(=O)O)C(=O)N[C@@H](CCCCN)C(=O)N[C@@H](CCCNC(=N)N)C(=O)N[C@@H](Cc1ccc(O)cc1)C(=O)N[C@@H](C)C(=O)NC(C)(C)C(=O)N[C@@H](CCC(=O)O)C(=O)N[C@@H](Cc1ccccc1)C(=O)N[C@H](C(=O)N[C@@H](CCC(=O)O)C(=O)N[C@@H](Cc1c[nH]c2ccccc12)C(=O)N[C@@H](CC(C)C)C(=O)N[C@@H](CCCCN)C(=O)N[C@@H](CC(N)=O)C(=O)N[C@H](C(=O)NCC(=O)N1CCC[C@H]1C(=O)N[C@@H](CO)C(=O)N[C@@H](CO)C(=O)NCC(=O)N[C@@H](C)C(=O)N1CCC[C@H]1C(=O)N1CCC[C@H]1C(=O)N1CCC[C@H]1C(=O)N[C@@H](CO)C(N)=O)[C@@H](C)O)[C@@H](C)CC)C(=O)O
B2: exendin-4 peptide analogue SEQ ID NO: 15 (peptide)
peptide: Y[Aib]QGTFTSDLSIQK([γGlu-Palmitoyl])EQRAA[Aib]EFIEWLKNTGPSSGAPPPS-NH2
modifications: N-terminus assumed
SMILES: CCCCCCCCCCCCCCCC(=O)N[C@@H](CCC(=O)NCCCC[C@H](NC(=O)[C@H](CCC(N)=O)NC(=O)[C@@H](NC(=O)[C@H](CO)NC(=O)[C@H](CC(C)C)NC(=O)[C@H](CC(=O)O)NC(=O)[C@H](CO)NC(=O)[C@@H](NC(=O)[C@H](Cc1ccccc1)NC(=O)[C@@H](NC(=O)CNC(=O)[C@H](CCC(N)=O)NC(=O)C(C)(C)NC(=O)[C@@H](N)Cc1ccc(O)cc1)[C@@H](C)O)[C@@H](C)O)[C@@H](C)CC)C(=O)N[C@@H](CCC(=O)O)C(=O)N[C@@H](CCC(N)=O)C(=O)N[C@@H](CCCNC(=N)N)C(=O)N[C@@H](C)C(=O)N[C@@H](C)C(=O)NC(C)(C)C(=O)N[C@@H](CCC(=O)O)C(=O)N[C@@H](Cc1ccccc1)C(=O)N[C@H](C(=O)N[C@@H](CCC(=O)O)C(=O)N[C@@H](Cc1c[nH]c2ccccc12)C(=O)N[C@@H](CC(C)C)C(=O)N[C@@H](CCCCN)C(=O)N[C@@H](CC(N)=O)C(=O)N[C@H](C(=O)NCC(=O)N1CCC[C@H]1C(=O)N[C@@H](CO)C(=O)N[C@@H](CO)C(=O)NCC(=O)N[C@@H](C)C(=O)N1CCC[C@H]1C(=O)N1CCC[C@H]1C(=O)N1CCC[C@H]1C(=O)N[C@@H](CO)C(N)=O)[C@@H](C)O)[C@@H](C)CC)C(=O)O
B3: exendin-4 peptide analogue SEQ ID NO: 16 (peptide)
peptide: Y[Aib]EGTFTSDLSIQK([γGlu-Stearoyl])ESKAA[Aib]EFIEWLKAGGPSSGAPPPSK-NH2
modifications: N-terminus assumed
SMILES: CCCCCCCCCCCCCCCCCC(=O)N[C@@H](CCC(=O)NCCCC[C@H](NC(=O)[C@H](CCC(N)=O)NC(=O)[C@@H](NC(=O)[C@H](CO)NC(=O)[C@H](CC(C)C)NC(=O)[C@H](CC(=O)O)NC(=O)[C@H](CO)NC(=O)[C@@H](NC(=O)[C@H](Cc1ccccc1)NC(=O)[C@@H](NC(=O)CNC(=O)[C@H](CCC(=O)O)NC(=O)C(C)(C)NC(=O)[C@@H](N)Cc1ccc(O)cc1)[C@@H](C)O)[C@@H](C)O)[C@@H](C)CC)C(=O)N[C@@H](CCC(=O)O)C(=O)N[C@@H](CO)C(=O)N[C@@H](CCCCN)C(=O)N[C@@H](C)C(=O)N[C@@H](C)C(=O)NC(C)(C)C(=O)N[C@@H](CCC(=O)O)C(=O)N[C@@H](Cc1ccccc1)C(=O)N[C@H](C(=O)N[C@@H](CCC(=O)O)C(=O)N[C@@H](Cc1c[nH]c2ccccc12)C(=O)N[C@@H](CC(C)C)C(=O)N[C@@H](CCCCN)C(=O)N[C@@H](C)C(=O)NCC(=O)NCC(=O)N1CCC[C@H]1C(=O)N[C@@H](CO)C(=O)N[C@@H](CO)C(=O)NCC(=O)N[C@@H](C)C(=O)N1CCC[C@H]1C(=O)N1CCC[C@H]1C(=O)N1CCC[C@H]1C(=O)N[C@@H](CO)C(=O)N[C@@H](CCCCN)C(N)=O)[C@@H](C)CC)C(=O)O
B4: exendin-4 peptide analogue SEQ ID NO: 18 (peptide)
peptide: Y[Aib]HGTFTSDLSIQK([γGlu-Stearoyl])EKRAA[Aib]EFIEWLKNTGPSSGAPPPS-NH2
modifications: N-terminus assumed
SMILES: CCCCCCCCCCCCCCCCCC(=O)N[C@@H](CCC(=O)NCCCC[C@H](NC(=O)[C@H](CCC(N)=O)NC(=O)[C@@H](NC(=O)[C@H](CO)NC(=O)[C@H](CC(C)C)NC(=O)[C@H](CC(=O)O)NC(=O)[C@H](CO)NC(=O)[C@@H](NC(=O)[C@H](Cc1ccccc1)NC(=O)[C@@H](NC(=O)CNC(=O)[C@H](Cc1c[nH]cn1)NC(=O)C(C)(C)NC(=O)[C@@H](N)Cc1ccc(O)cc1)[C@@H](C)O)[C@@H](C)O)[C@@H](C)CC)C(=O)N[C@@H](CCC(=O)O)C(=O)N[C@@H](CCCCN)C(=O)N[C@@H](CCCNC(=N)N)C(=O)N[C@@H](C)C(=O)N[C@@H](C)C(=O)NC(C)(C)C(=O)N[C@@H](CCC(=O)O)C(=O)N[C@@H](Cc1ccccc1)C(=O)N[C@H](C(=O)N[C@@H](CCC(=O)O)C(=O)N[C@@H](Cc1c[nH]c2ccccc12)C(=O)N[C@@H](CC(C)C)C(=O)N[C@@H](CCCCN)C(=O)N[C@@H](CC(N)=O)C(=O)N[C@H](C(=O)NCC(=O)N1CCC[C@H]1C(=O)N[C@@H](CO)C(=O)N[C@@H](CO)C(=O)NCC(=O)N[C@@H](C)C(=O)N1CCC[C@H]1C(=O)N1CCC[C@H]1C(=O)N1CCC[C@H]1C(=O)N[C@@H](CO)C(N)=O)[C@@H](C)O)[C@@H](C)CC)C(=O)O
B5: exendin-4 peptide analogue SEQ ID NO: 14 (peptide)
peptide: Y[Aib]QGTFTSDLSIQK([γGlu-Palmitoyl])EKRAA[Aib]EFIEWLKA[dA]GPSSGAPPPS-NH2
modifications: N-terminus assumed
SMILES: CCCCCCCCCCCCCCCC(=O)N[C@@H](CCC(=O)NCCCC[C@H](NC(=O)[C@H](CCC(N)=O)NC(=O)[C@@H](NC(=O)[C@H](CO)NC(=O)[C@H](CC(C)C)NC(=O)[C@H](CC(=O)O)NC(=O)[C@H](CO)NC(=O)[C@@H](NC(=O)[C@H](Cc1ccccc1)NC(=O)[C@@H](NC(=O)CNC(=O)[C@H](CCC(N)=O)NC(=O)C(C)(C)NC(=O)[C@@H](N)Cc1ccc(O)cc1)[C@@H](C)O)[C@@H](C)O)[C@@H](C)CC)C(=O)N[C@@H](CCC(=O)O)C(=O)N[C@@H](CCCCN)C(=O)N[C@@H](CCCNC(=N)N)C(=O)N[C@@H](C)C(=O)N[C@@H](C)C(=O)NC(C)(C)C(=O)N[C@@H](CCC(=O)O)C(=O)N[C@@H](Cc1ccccc1)C(=O)N[C@H](C(=O)N[C@@H](CCC(=O)O)C(=O)N[C@@H](Cc1c[nH]c2ccccc12)C(=O)N[C@@H](CC(C)C)C(=O)N[C@@H](CCCCN)C(=O)N[C@@H](C)C(=O)N[C@H](C)C(=O)NCC(=O)N1CCC[C@H]1C(=O)N[C@@H](CO)C(=O)N[C@@H](CO)C(=O)NCC(=O)N[C@@H](C)C(=O)N1CCC[C@H]1C(=O)N1CCC[C@H]1C(=O)N1CCC[C@H]1C(=O)N[C@@H](CO)C(N)=O)[C@@H](C)CC)C(=O)O
B6: exendin-4 peptide analogue SEQ ID NO: 17 (peptide)
peptide: Y[Aib]EGTFTSDLSKQK([γGlu-Palmitoyl])EKEAA[Aib]EFIEWLKAGGPSSGAPPPS-NH2
modifications: N-terminus assumed
SMILES: CCCCCCCCCCCCCCCC(=O)N[C@@H](CCC(=O)NCCCC[C@H](NC(=O)[C@H](CCC(N)=O)NC(=O)[C@H](CCCCN)NC(=O)[C@H](CO)NC(=O)[C@H](CC(C)C)NC(=O)[C@H](CC(=O)O)NC(=O)[C@H](CO)NC(=O)[C@@H](NC(=O)[C@H](Cc1ccccc1)NC(=O)[C@@H](NC(=O)CNC(=O)[C@H](CCC(=O)O)NC(=O)C(C)(C)NC(=O)[C@@H](N)Cc1ccc(O)cc1)[C@@H](C)O)[C@@H](C)O)C(=O)N[C@@H](CCC(=O)O)C(=O)N[C@@H](CCCCN)C(=O)N[C@@H](CCC(=O)O)C(=O)N[C@@H](C)C(=O)N[C@@H](C)C(=O)NC(C)(C)C(=O)N[C@@H](CCC(=O)O)C(=O)N[C@@H](Cc1ccccc1)C(=O)N[C@H](C(=O)N[C@@H](CCC(=O)O)C(=O)N[C@@H](Cc1c[nH]c2ccccc12)C(=O)N[C@@H](CC(C)C)C(=O)N[C@@H](CCCCN)C(=O)N[C@@H](C)C(=O)NCC(=O)NCC(=O)N1CCC[C@H]1C(=O)N[C@@H](CO)C(=O)N[C@@H](CO)C(=O)NCC(=O)N[C@@H](C)C(=O)N1CCC[C@H]1C(=O)N1CCC[C@H]1C(=O)N1CCC[C@H]1C(=O)N[C@@H](CO)C(N)=O)[C@@H](C)CC)C(=O)O

What follows are binders tested against T1, human GIP receptor (assay: cell-based or functional assay).

First: B1
Second: B2
The “EC50 hGIP R” value of the first is 2.3-fold higher: 0.0263 nM for the first, 0.0114 nM for the second.

Going from B3 to B4, the “EC50 hGIP R” value falls from 0.0156 nM to 0.0095 nM (1.6-fold).

B5 and B6 are within 1.5-fold of each other in “EC50 hGIP R” value: 0.0062 nM for the first, 0.0083 nM for the second.

The binders below were run against human glucagon receptor (human, UniProt P47871 26-477) (assay: cell-based or functional assay).
human glucagon receptor, sequence (P47871 26-477): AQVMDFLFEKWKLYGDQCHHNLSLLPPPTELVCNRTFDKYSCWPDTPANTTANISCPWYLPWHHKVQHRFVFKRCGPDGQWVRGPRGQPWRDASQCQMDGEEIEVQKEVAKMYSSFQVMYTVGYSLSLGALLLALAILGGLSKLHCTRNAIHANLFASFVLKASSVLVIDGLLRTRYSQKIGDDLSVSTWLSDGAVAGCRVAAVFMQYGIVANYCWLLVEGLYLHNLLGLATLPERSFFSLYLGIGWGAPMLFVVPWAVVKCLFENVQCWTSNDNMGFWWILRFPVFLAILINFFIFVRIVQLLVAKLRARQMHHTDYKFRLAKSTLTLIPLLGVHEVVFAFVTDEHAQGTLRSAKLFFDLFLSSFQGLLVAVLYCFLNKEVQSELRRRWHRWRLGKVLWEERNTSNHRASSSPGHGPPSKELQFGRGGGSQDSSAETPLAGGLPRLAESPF

First: B1
Second: B2
The “EC50 hGLUC R” value of the first is 2.7-fold lower: 0.0202 nM for the first, 0.054 nM for the second.

First: B3
Second: B4
The “EC50 hGLUC R” value of the first is 1800-fold higher: 17 nM for the first, 0.0095 nM for the second.

Compared with B5, B6 is 340-fold higher in “EC50 hGLUC R” value: 0.0623 nM for the first, 21 nM for the second.

The binders below were run against human GLP-1 receptor (human, UniProt P43220 24-463) (assay: cell-based or functional assay).

First: B1
Second: B2
The “EC50 hGLP-1 R” value of the first is 2-fold higher: 0.0141 nM for the first, 0.0069 nM for the second.

First: B3
Second: B4
The “EC50 hGLP-1 R” value of the first is 2.6-fold lower: 0.007 nM for the first, 0.0183 nM for the second.

B5 and B6 are within 1.5-fold of each other in “EC50 hGLP-1 R” value: 0.0065 nM for the first, 0.0052 nM for the second.
